These results are taken from patent publication US20190315854A1 (BEIJING VDJBIO, published 2019).

By Kd is commonly meant the concentration at which binding is half-saturated. Low readings indicate tighter binding, high ones weaker binding. In general, koff refers to the first-order rate constant of dissociation. Broadly, the kon is a measure of how fast the partners come together.

The target in the assay is T1, sIL-6R (soluble IL-6 receptor; SBH Sciences) (human, UniProt P08887 20-365).
T1 construct: also called human IL-6R
T1 sequence: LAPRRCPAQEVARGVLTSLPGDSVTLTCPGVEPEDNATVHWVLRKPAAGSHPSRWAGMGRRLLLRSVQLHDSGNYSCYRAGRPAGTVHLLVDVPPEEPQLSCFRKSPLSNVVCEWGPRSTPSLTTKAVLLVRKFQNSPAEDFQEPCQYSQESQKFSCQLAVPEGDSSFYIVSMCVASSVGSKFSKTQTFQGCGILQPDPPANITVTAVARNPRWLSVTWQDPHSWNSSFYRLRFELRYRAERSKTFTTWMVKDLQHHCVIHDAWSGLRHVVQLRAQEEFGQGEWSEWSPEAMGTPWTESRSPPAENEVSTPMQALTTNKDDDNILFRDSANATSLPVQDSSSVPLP
The assay can be described thus: SPR (BIAcore 3000), antibody on chip, sIL-6R analyte, 25 C. How it is done:
All SPR measurements were performed on a BIAcore 3000 instrument (GE Biosciences, Piscataway, N.J.). BIAcore Software-BIAcore 3000 Control Software V3.2 was used for the operation and control of the BIAcore 3000 instrument. BiaEvaluation Software V4.1 was used for the analysis of SPR data from the BIAcore 3000 instrument and data was plotted using Graph Pad Prism Software Version 5. […] The indicated antibodies were used as the ligand for the construction of the reference channel of the chip. […] Each sample was injected for 3 min at a flow rate of 30 μL/min to allow for binding to chip-bound antibody. Next, binding buffer without analyte was sent over the chip at the same flow rate to allow for dissociation of bound analyte. After 500s, remaining bound analyte was removed by injecting regeneration solution (1M Formic acid). Data was analyzed by using the Kinetics Wizard and the manual fitting programs that are both included with the BiaEvaluation Software V4.1.
(In general: In SPR one partner is held on a chip, and binding of the other changes the refractive index at the surface.)

Numbering of substitutions follows the chain as printed.

B1: 52# (antibody, human IgG1, kappa, V domains shown)
VH: QVQLQESGPGLVRPSQTLSLTCTVSGYSITSDHAWSWVRQPPGRGLEWIGYISYSGITTYNPSLKSRVTMLRDTSKNQFSLRLSSVTAADTAVYYCARSLARTTAIDFWGQGSLVTVSS
VL: DIQMTQSPSSLSASVGDRVTITCRASQDISSYLNWYQQKPGKAPKLLIYYTSRLHSGVPSRFSGSGSGTDFTFTISSLQPEDIATYYCQQGNTLPYTFGQGTKVEIKR
notes: also called Sample # 52
Regarding B1, the affinity, expressed as Kd, was 1.86 nM; the “Relative Affinity” value was 1.7 fold vs 25 (Tocilizumab); the koff worked out at 0.000199 s⁻¹; the kon came out at 107000 M⁻¹ s⁻¹.

B2: 222# (antibody, human IgG1, kappa, V domains shown)
VH: B1 VH with I57M, T58I, S99C, T103M, I106M, F108Y
VL: B1 VL with Q89G, T93R
notes: also called Sample # 222
With B2, the Kd was found to be 0.286 nM, the “Relative Affinity” value was 11 fold vs 25 (Tocilizumab), the koff was found to be 3.66e-05 s⁻¹ and the kon amounted to 128000 M⁻¹ s⁻¹.

B3: 224# (antibody, human IgG1, kappa, V domains shown)
VH: B1 VH with I57M, S99C, I106M, F108Y
VL: B1 VL
With B3, binding was characterised by a dissociation constant (Kd) of 0.5 nM, the “Relative Affinity” value was 6.3 fold vs 25 (Tocilizumab), the koff is 7.99e-05 s⁻¹ and the association rate constant (kon) amounted to 160000 M⁻¹ s⁻¹.

B4: 229# (antibody, human IgG1, kappa, V domains shown)
VH: B1 VH with I57M, T58I, T103M
VL: B1 VL
As to B4, the Kd is 0.605 nM, the “Relative Affinity” value was 5.2 fold vs 25 (Tocilizumab), the koff was found to be 7.49e-05 s⁻¹ and the kon was found to be 124000 M⁻¹ s⁻¹.

B5: 226# (antibody, human IgG1, kappa, V domains shown)
VH: B1 VH with I57M, T58I, S99C, T103A, I106M, F108Y
VL: B1 VL
For the molecule B5, the Kd came to 0.102 nM, the “Relative Affinity” value is 31 fold vs 25 (Tocilizumab), the koff is 1.6e-05 s⁻¹ and the association rate constant (kon) was determined as 156000 M⁻¹ s⁻¹.

B6: 228# (antibody, human IgG1, kappa, V domains shown)
VH: B1 VH with I57M, S99C, T103M
VL: B1 VL
notes: also called Sample # 228
For B6, the equilibrium dissociation constant (Kd) turned out to be 0.204 nM, the “Relative Affinity” value is 15.5 fold vs 25 (Tocilizumab), the koff is 3.04e-05 s⁻¹ and the association rate constant (kon) worked out at 149000 M⁻¹ s⁻¹.

B7: 59# (antibody, human IgG1, kappa, V domains shown)
VH: B1 VH with Y51F, I57M, S99C, I106M, F108Y
VL: B1 VL
notes: also called Sample # 59
Take B7: the Kd was 0.283 nM, the “Relative Affinity” value was 11.2 fold vs 25 (Tocilizumab), the koff worked out at 4.86e-05 s⁻¹ and the kon stood at 172000 M⁻¹ s⁻¹.

B8: 221# (antibody, human IgG1, kappa, V domains shown)
VH: B1 VH with I57M, T58I
VL: B1 VL with Q89G, T93R
For B8, the Kd is 0.663 nM, the “Relative Affinity” value was 4.8 fold vs 25 (Tocilizumab), the koff was found to be 9.01e-05 s⁻¹ and the kon is 136000 M⁻¹ s⁻¹.

B9: 217# (antibody, human IgG1, kappa, V domains shown)
VH: B1 VH with I57M, T58I, S99C, T103M, I106M, F108Y
VL: B1 VL
notes: also called Sample # 217
For the molecule B9, binding was put at a Kd of 0.581 nM, the “Relative Affinity” value is 5.4 fold vs 25 (Tocilizumab), the off-rate constant (koff) is 0.000109 s⁻¹ and the kon came out at 188000 M⁻¹ s⁻¹.

B10: 223# (antibody, human IgG1, kappa, V domains shown)
VH: B1 VH with I57M, T58I, S99C, T103M
VL: B1 VL with Q89G, T93R
notes: also called Sample # 223
For the molecule B10, the affinity, expressed as Kd, was 0.368 nM; the “Relative Affinity” value is 8.6 fold vs 25 (Tocilizumab); the koff was 4.91e-05 s⁻¹; the kon came to 133000 M⁻¹ s⁻¹.

B11: 216# (antibody, human IgG1, kappa, V domains shown)
VH: B1 VH with I57M, T58I
VL: B1 VL
notes: also called Sample # 216
As for B11, the Kd turned out to be 1.83 nM, the “Relative Affinity” value was 1.7 fold vs 25 (Tocilizumab), the koff worked out at 0.000266 s⁻¹ and the kon amounted to 145000 M⁻¹ s⁻¹.

B12: 225# (antibody, human IgG1, kappa, V domains shown)
VH: B1 VH with I57M, T58I, S99C, I106M, F108Y
VL: B1 VL
On to B12, for which binding was put at a Kd of 0.645 nM, the “Relative Affinity” value is 4.9 fold vs 25 (Tocilizumab), the koff was found to be 0.000105 s⁻¹ and the kon was 163000 M⁻¹ s⁻¹.

B13: 55# (antibody, human IgG1, kappa, V domains shown)
VH: B1 VH with Y51F, I57M, T58I, S99C, I106M, F108Y
VL: B1 VL
notes: also called Sample # 55
Regarding B13, binding was characterised by a dissociation constant (Kd) of 0.387 nM, the “Relative Affinity” value was 8.2 fold vs 25 (Tocilizumab), the koff was found to be 7.24e-05 s⁻¹ and the kon is 187000 M⁻¹ s⁻¹.

B14: 227# (antibody, human IgG1, kappa, V domains shown)
VH: B1 VH with I57M, T58I, T103A, I106M, F108Y
VL: B1 VL
notes: also called Sample # 227
As to B14, binding was put at a Kd of 0.477 nM, the “Relative Affinity” value is 6.6 fold vs 25 (Tocilizumab), the koff is 6.9e-05 s⁻¹ and the kon was found to be 144000 M⁻¹ s⁻¹.

B15: 218# (antibody, human IgG1, kappa, V domains shown)
VH: B1 VH with I57M, T58I, S99C, T103M
VL: B1 VL
Take B15: the Kd was 0.621 nM, the “Relative Affinity” value was 5.1 fold vs 25 (Tocilizumab), the koff is 6.63e-05 s⁻¹ and the kon came to 107000 M⁻¹ s⁻¹.

B16: 220# (antibody, human IgG1, kappa, V domains shown)
VH: B1 VH with I57M, T58I, T103M, I106M, F108Y
VL: B1 VL with Q89G, T93R
notes: also called Sample # 220
Consider B16, for which binding was put at a Kd of 0.483 nM, the “Relative Affinity” value is 6.5 fold vs 25 (Tocilizumab), the koff was 6.34e-05 s⁻¹ and the association rate constant (kon) was found to be 131000 M⁻¹ s⁻¹.

B17: 214# (antibody, human IgG1, kappa, V domains shown)
VH: B1 VH with S99C, T103M
VL: B1 VL
For B17, the Kd turned out to be 0.369 nM, the “Relative Affinity” value was 8.7 fold vs 25 (Tocilizumab), the koff turned out to be 4.69e-05 s⁻¹ and the kon is 127000 M⁻¹ s⁻¹.

B18: 215# (antibody, human IgG1, kappa, V domains shown)
VH: B1 VH with I57M, T58I, T103M, I106M, F108Y
VL: B1 VL
On to B18, for which the dissociation constant (Kd) turned out to be 1.03 nM, the “Relative Affinity” value was 3.1 fold vs 25 (Tocilizumab), the koff amounted to 0.000161 s⁻¹ and the kon stood at 157000 M⁻¹ s⁻¹.

B19: 69# (antibody, human IgG1, kappa, V domains shown)
VH: B1 VH with Y51F, I57M, S99C
VL: B1 VL
notes: also called Sample # 69
On to B19, for which the Kd was 0.286 nM, the “Relative Affinity” value was 11 fold vs 25 (Tocilizumab), the dissociation rate constant (koff) was determined as 4.14e-05 s⁻¹ and the kon was 145000 M⁻¹ s⁻¹.

B20: 219# (antibody, human IgG1, kappa, V domains shown)
VH: B1 VH with S99C, T103M
VL: B1 VL with Q89G, T93R
In the case of B20, the Kd was 0.491 nM, the “Relative Affinity” value is 6.4 fold vs 25 (Tocilizumab), the koff was determined as 5.96e-05 s⁻¹ and the kon is 121000 M⁻¹ s⁻¹.

B21: 230# (antibody, human IgG1, kappa, V domains shown)
VH: B1 VH with I57M, T58I, S99C
VL: B1 VL
notes: also called Sample # 230
Take B21: the equilibrium dissociation constant (Kd) stood at 0.448 nM, the “Relative Affinity” value is 7.1 fold vs 25 (Tocilizumab), the off-rate constant (koff) came out at 6.15e-05 s⁻¹ and the kon is 137000 M⁻¹ s⁻¹.
